T1: purified streptococcal antigen (SA) I/II (Streptococcus mutans, UniProt P23504 39-1532)
T1 construct: Purified antigen as coated on ELISA plates; also called SA 1/11; purified SA I/II
T1 sequence (looked up): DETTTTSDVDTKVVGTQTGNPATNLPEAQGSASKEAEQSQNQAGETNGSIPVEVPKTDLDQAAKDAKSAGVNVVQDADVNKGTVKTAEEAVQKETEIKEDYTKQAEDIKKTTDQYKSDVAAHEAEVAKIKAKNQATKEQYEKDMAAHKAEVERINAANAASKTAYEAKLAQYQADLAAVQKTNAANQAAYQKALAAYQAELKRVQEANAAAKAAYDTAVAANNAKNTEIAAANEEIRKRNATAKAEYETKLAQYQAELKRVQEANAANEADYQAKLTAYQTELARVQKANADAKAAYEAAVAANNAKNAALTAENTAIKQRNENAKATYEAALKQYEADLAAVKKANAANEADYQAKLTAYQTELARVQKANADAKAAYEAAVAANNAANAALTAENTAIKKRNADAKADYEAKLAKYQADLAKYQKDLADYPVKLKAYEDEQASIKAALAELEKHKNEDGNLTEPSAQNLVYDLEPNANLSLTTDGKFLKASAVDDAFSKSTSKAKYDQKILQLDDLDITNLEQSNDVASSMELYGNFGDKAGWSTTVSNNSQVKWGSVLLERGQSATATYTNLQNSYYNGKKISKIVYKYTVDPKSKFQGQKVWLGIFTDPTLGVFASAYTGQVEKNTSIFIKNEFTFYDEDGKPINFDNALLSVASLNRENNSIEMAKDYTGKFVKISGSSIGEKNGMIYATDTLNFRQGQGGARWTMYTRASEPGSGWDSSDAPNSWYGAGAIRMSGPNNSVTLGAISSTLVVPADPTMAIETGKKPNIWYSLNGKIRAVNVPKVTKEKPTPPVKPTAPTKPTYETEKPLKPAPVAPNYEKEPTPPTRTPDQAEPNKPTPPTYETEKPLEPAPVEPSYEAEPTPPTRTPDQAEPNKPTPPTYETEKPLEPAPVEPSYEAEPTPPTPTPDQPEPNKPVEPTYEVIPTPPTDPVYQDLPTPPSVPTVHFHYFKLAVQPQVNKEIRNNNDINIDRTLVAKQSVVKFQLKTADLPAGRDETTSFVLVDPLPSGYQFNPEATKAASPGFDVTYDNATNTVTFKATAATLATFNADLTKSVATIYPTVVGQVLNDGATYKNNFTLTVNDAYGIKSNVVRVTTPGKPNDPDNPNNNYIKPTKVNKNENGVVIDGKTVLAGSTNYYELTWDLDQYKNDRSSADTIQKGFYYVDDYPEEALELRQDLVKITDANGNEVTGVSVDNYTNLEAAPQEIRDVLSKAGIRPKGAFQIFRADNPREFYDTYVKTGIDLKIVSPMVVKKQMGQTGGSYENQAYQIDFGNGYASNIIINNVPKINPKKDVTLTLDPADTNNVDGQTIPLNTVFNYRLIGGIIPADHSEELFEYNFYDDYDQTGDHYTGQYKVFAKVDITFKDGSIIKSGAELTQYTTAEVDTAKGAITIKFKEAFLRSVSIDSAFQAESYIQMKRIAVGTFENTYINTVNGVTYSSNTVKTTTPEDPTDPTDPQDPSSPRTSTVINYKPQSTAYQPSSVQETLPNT

B1: mouse J chain expressed alone in plants (other, UniProt P01592 22-159, looked up)
chain: GDDEATILADNKCMCTRVTSRIIPSTEDPNEDIVERNIRIVVPLNNRENISDPTSPLRRNFVYHLSDVCKKCDPVEVELEDQVVTATQSNICNEDDGVPETCYMYDRNKCYTTMVPLRYHGETKMVQAALTPDSCYPD
notes: Tested as crude plant extract; also called plants expressing only J chain
B2: protection protein (amino acids 1-606 of rabbit polyimmunoglobulin receptor) expressed alone in plants (receptor)
chain: QSSLLGPSSIFGPGEVNVLEGDSVSITCYYPTTSVTRHSRKFWCREEESGRCVTLASTGYTSQEYSGRGKLTDFPDKGEFVVTVDQLTQNDSGSYKCGVGVNGRGLDFGVNVLVSQKPEPDDVVYKQYESYTVTITCPFTYATRQLKKSFYKVEDGELVLIIDSSSKEAKDPRYKGRITLQIQSTTAKEFTVTIKHLQLNDAGQYVCQSGSDPTAEEQNVDLRLLTPGLLYGNLGGSVTFECALDSEDANAVASLRQVRGGNVVIDSQGTIDPAFEGRILFTKAENGHFSVVIAGLRKEDTGNYLCGVQSNGQSGDGPTQLRQLFVNEEIDVSRSPPVLKGFPGGSVTIRCPYNPKRSDSHLQLYLWEGSQTRHLLVDSGEGLVQKDYTGRLALFEEPGNGTFSVVLNQLTAEDEGFYWCVSDDDESLTTSVKLQIVDGEPSPTIDKFTAVQGEPVEITCHFPCKYFSSEKYWCKWNDHGCEDLPTKLSSSGDLVKCNNNLVLTLTLDSVSEDDEGWYWCGAKDGHEFEEVAAVRVELTEPAKVAVEPAKVPVDPAKAAPAPAEEKAKARCPVPRRRQWYPLSRKLRTSCPEPRLLAEEVAVQSAE
notes: also called plants expressing only protection protein; free protection protein

Legend:
[1] = biological target: T1, purified streptococcal antigen (SA) I/II; experiment: ELISA on SA I/II, plant extract
[2] = biological target: T1, purified streptococcal antigen (SA) I/II; experiment: ELISA on purified SA I/II, plant extract

Binder	binding result [1]	binding result [2]
B1	no binding	–
B2	–	no binding

Reference: patent US20020159958A1 (REGENTS OF UNIVERSITY OF CALIFORNIA, published 2002)
